Measurements taken from patent publication US8349320.

Columns and labels:
[1] = target: mouse HVEM-Fc (mouse; human) (UniProt Q80WM9); assay: flow cytometry competition, graded soluble gD against 2 µg/ml mHVEM:Fc on hLIGHT-EL4 cells (FIG. 3G)
[2] = target: mouse HVEM expressed on cells (mouse) (UniProt Q80WM9); assay: flow cytometry competition, graded soluble gD against 1.4 µg/ml mBTLA-T on mHVEM-HEK293 cells (FIG. 3G)
Sequence of mouse HVEM expressed on cells (mouse) (Q80WM9 39-275): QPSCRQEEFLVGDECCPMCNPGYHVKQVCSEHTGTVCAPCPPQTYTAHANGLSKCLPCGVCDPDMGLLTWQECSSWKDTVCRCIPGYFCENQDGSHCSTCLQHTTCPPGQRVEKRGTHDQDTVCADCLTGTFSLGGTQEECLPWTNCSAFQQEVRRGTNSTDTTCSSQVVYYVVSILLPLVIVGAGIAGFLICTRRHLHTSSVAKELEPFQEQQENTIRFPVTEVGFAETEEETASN

Sequence of mouse HVEM-Fc (mouse; human) (Q80WM9 39-206 limits assumed): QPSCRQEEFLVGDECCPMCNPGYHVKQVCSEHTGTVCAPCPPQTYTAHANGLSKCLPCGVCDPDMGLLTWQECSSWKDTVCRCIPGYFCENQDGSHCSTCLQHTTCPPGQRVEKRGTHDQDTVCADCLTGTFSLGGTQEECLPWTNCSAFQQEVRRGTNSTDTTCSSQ

## purified recombinant soluble gD (gD-1Δ290-299)
[1]
  Kd: 250 nM
[2]
  Kd: 250 nM
